Experimental data from the Human Domainome abundance scans (Beltran et al. 2025).
± gives the uncertainty stated by the source.

B1: Ras GTPase-activating protein 1, residues 281 to 341; numbered along this chain, P20936 (parent)
chain: RRRVRAILPYTKVPDTDEISFLKGDMFIVHNELEDGWMWVTNLRTDEQGLIVEDLVEEVGR

Variants of: B1
Experiment: abundance fitness (aPCA) (normalised: wild type 0, dead -1); higher = more abundant; growth selection in yeast, the domain comes from the species named
Settings: Homo sapiens
RRRVRAILPYTKVPDTDELSFLKGDMFIVHNELEDGWMWVTNLRTDEQGLIVEDLVEEVGR gave an abundance fitness of -0.004 ± 0.03.
Work on RRRVRAILPYTKVPDTDEISFLKGDMFWVHNELEDGWMWVTNLRTDEQGLIVEDLVEEVGR yielded an abundance fitness of -0.136 ± 0.03.
RRRVRAILPYTKVPDTDEISFLKGDMFIVHFELEDGWMWVTNLRTDEQGLIVEDLVEEVGR gave an abundance fitness of -0.17 ± 0.029.
In the case of RRRVRAILPYTKVPDTDEISFLKGDMFIVHNELEDGWMWVTNLRTDEQGLLVEDLVEEVGR, the abundance fitness is reported as -0.157 ± 0.029.
In the case of RRRVRAILPYTKVPDTDEISFLKGDMFIVHNELEDGWMWVTNLRTDEQGLIVEDLDEEVGR, the abundance fitness is reported as -0.887 ± 0.052.
Work on RRRVRAILPYTKVPDTDEISFLKGDMFIVHNELEDGWMWVTNLRTDEQGLIVEDLVLEVGR yielded an abundance fitness of -0.368 ± 0.041.
With RRRVRAILPYTKVPDTDEISFLKGDMFIVHNELEDGWMTVTNLRTDEQGLIVEDLVEEVGR the abundance fitness was -0.26 ± 0.023.
Work on RRRVRAILPYTKVPDTDEISFLKGDMFIVHNTLEDGWMWVTNLRTDEQGLIVEDLVEEVGR yielded an abundance fitness of 0.003 ± 0.031.
For RRRVRAILPYTKVPDTDEISFLKGDMFIVHNELEDGWMWVTNLRTDEQGLIVEDLVEEHGR, the abundance fitness was -0.124 ± 0.03.
Variant RRRVRAILPYTKVPDTDEISFLKGDMFIVHNELEDGWMWVTNLRTDYQGLIVEDLVEEVGR has an abundance fitness of -0.77 ± 0.038.
For RRRVRAILPYTKVPDTDEISFLKGDMFIVHNELEDGWMWVNNLRTDEQGLIVEDLVEEVGR, the abundance fitness was -0.576 ± 0.033.
NRRVRAILPYTKVPDTDEISFLKGDMFIVHNELEDGWMWVTNLRTDEQGLIVEDLVEEVGR gave an abundance fitness of 0.063 ± 0.037.
Work on RRRVRAILPYTKVPDTDEISWLKGDMFIVHNELEDGWMWVTNLRTDEQGLIVEDLVEEVGR yielded an abundance fitness of -0.92 ± 0.068.
Variant RRRVRAILPYTKVPDTDEISFLKGDMFIVHNELEDGWMWVTNLRTDEQGNIVEDLVEEVGR has an abundance fitness of -0.828 ± 0.044.
With RRRVRAILPYTKVPDTSEISFLKGDMFIVHNELEDGWMWVTNLRTDEQGLIVEDLVEEVGR the abundance fitness was -0.049 ± 0.024.
In the case of RRRVRAILPYTKVPDTDEISFLKGDMFIVHNALEDGWMWVTNLRTDEQGLIVEDLVEEVGR, the abundance fitness is reported as -0.068 ± 0.029.
RRRVRAILPYTKVPDTDEISFLKGDMFIVHNELEDGWMWVTNLRTDEQGLIVEPLVEEVGR gave an abundance fitness of -0.175 ± 0.049.
For RRRVRAILPYTKVPDTDEISFLKGVMFIVHNELEDGWMWVTNLRTDEQGLIVEDLVEEVGR, the abundance fitness was -0.904 ± 0.046.
RRRVRAILPYTKVPDTDEISFLKGDMFIVHNELEDGWMWVTNLRTDEQGLFVEDLVEEVGR showed an abundance fitness of -0.826 ± 0.045.
RRRVRAILPYTKVQDTDEISFLKGDMFIVHNELEDGWMWVTNLRTDEQGLIVEDLVEEVGR showed an abundance fitness of -0.055 ± 0.074.
With RRRVRAILPYTKVPDTDEISFLKGDMFIVHNELYDGWMWVTNLRTDEQGLIVEDLVEEVGR the abundance fitness was -0.188 ± 0.034.
Work on RRRVRAILPYTKVPDTDEISFLKGDMFIVHNCLEDGWMWVTNLRTDEQGLIVEDLVEEVGR yielded an abundance fitness of -0.058 ± 0.029.
With RRRVRAILPYTDVPDTDEISFLKGDMFIVHNELEDGWMWVTNLRTDEQGLIVEDLVEEVGR the abundance fitness was -0.806 ± 0.056.
RRRVRAILPYTKVPDTDEISQLKGDMFIVHNELEDGWMWVTNLRTDEQGLIVEDLVEEVGR showed an abundance fitness of -0.74 ± 0.068.
Work on RRRVRAILPYTKVPDTDEISFLKGDMFIVHNWLEDGWMWVTNLRTDEQGLIVEDLVEEVGR yielded an abundance fitness of -0.103 ± 0.049.
Variant RRRVRAILPYTKVPDTDEISFLKGDMFIVHNELEDGWMWVTNLRTDEQVLIVEDLVEEVGR has an abundance fitness of -0.949 ± 0.049.
RRRVRAILPYTKVPDTDEISFLKGDMFIVHNELEDGWMWVKNLRTDEQGLIVEDLVEEVGR gave an abundance fitness of -0.143 ± 0.057.
With RRRVRAILPYTKVPWTDEISFLKGDMFIVHNELEDGWMWVTNLRTDEQGLIVEDLVEEVGR the abundance fitness was -0.276 ± 0.059.
In the case of RRRVRAILPYTKVPDTDEISFLKGDMFIQHNELEDGWMWVTNLRTDEQGLIVEDLVEEVGR, the abundance fitness is reported as -0.954 ± 0.16.
Variant RRRVRAILPYTKVPDTDEISFLKGDMFVVHNELEDGWMWVTNLRTDEQGLIVEDLVEEVGR has an abundance fitness of -0.016 ± 0.021.
With RRRVRAILPYTKVPDTDEISFLKGDMFIVHNELEDGWMWVTNLRTDEQGLIVEDLVECVGR the abundance fitness was -0.146 ± 0.032.
In the case of RRRVRAISPYTKVPDTDEISFLKGDMFIVHNELEDGWMWVTNLRTDEQGLIVEDLVEEVGR, the abundance fitness is reported as -0.03 ± 0.025.
RRRVRAILPYTKVPDTDEISFLKGDMFIVHNELEDGWMWVTNVRTDEQGLIVEDLVEEVGR gave an abundance fitness of -0.044 ± 0.029.
With RRRVRAIMPYTKVPDTDEISFLKGDMFIVHNELEDGWMWVTNLRTDEQGLIVEDLVEEVGR the abundance fitness was 0.044 ± 0.044.
RRRIRAILPYTKVPDTDEISFLKGDMFIVHNELEDGWMWVTNLRTDEQGLIVEDLVEEVGR gave an abundance fitness of -0.205 ± 0.023.
RRRVRAILPYTKVPDTDEISFLTGDMFIVHNELEDGWMWVTNLRTDEQGLIVEDLVEEVGR gave an abundance fitness of -0.058 ± 0.024.
With RRRVRAILPYTKVPDTDEISFLKGDMFIVHNELEDGYMWVTNLRTDEQGLIVEDLVEEVGR the abundance fitness was 0.024 ± 0.021.
RRRVRAILTYTKVPDTDEISFLKGDMFIVHNELEDGWMWVTNLRTDEQGLIVEDLVEEVGR showed an abundance fitness of -0.076 ± 0.038.
Work on RRRVRAILPYTKVPDTDEISFLKGDMFIVHNELEDGWMWVTNLFTDEQGLIVEDLVEEVGR yielded an abundance fitness of -0.637 ± 0.033.
Variant RRRVRAILPYTKVPDTDEISFLKGDMFIVTNELEDGWMWVTNLRTDEQGLIVEDLVEEVGR has an abundance fitness of -0.261 ± 0.037.
RRRVRAILPYTKVPDTDEISFLKMDMFIVHNELEDGWMWVTNLRTDEQGLIVEDLVEEVGR gave an abundance fitness of -0.59 ± 0.078.
With RRRVRAILPYTKVPDTDEISFLKGDMFIVHNELEDGWMWVTNLRTDEQGLIVEDLVEDVGR the abundance fitness was -0.026 ± 0.037.
For RRRVRAILPYTKVPDTDVISFLKGDMFIVHNELEDGWMWVTNLRTDEQGLIVEDLVEEVGR, the abundance fitness was -0.369 ± 0.029.
